Measurements as given in paper PMC11035697, “Phosphorylation of the F-BAR protein Hof1 drives septin ring splitting in budding yeast” (Nature Communications, 2024).

B1: Cdc11-Cdc12-Cdc3-Cdc10-Cdc10-Cdc3-Cdc12-Cdc11 septin octamer (complex, S. cerevisiae)
chain 1: MSGIIDASSALRKRKHLKRGITFTVMIVGQSGSGRSTFINTLCGQQVVDTSTTILLPTDTSTEIDLQLREETVELEDDEGVKIQLNIIDTPGFGDSLDNSPSFEIISDYIRHQYDEILLEESRVRRNPRFKDGRVHCCLYLINPTGHGLKEIDVEFIRQLGSLVNIIPVISKSDSLTRDELKLNKKLIMEDIDRWNLPIYNFPFDEDEISDEDYETNMYLRTLLPFAIIGSNEVYEMGGDVGTIRGRKYPWGILDVEDSSISDFVILRNALLISHLHDLKNYTHEILYERYRTEALSGESVAAESIRPNLTKLNGSSSSSTTTRRNTNPFKQSNNINNDVLNPASDMHGQSTGENNETYMTREEQIRLEEERLKAFEERVQQELLLKRQELLQREKELREIEARLEKEAKIKQEE
chain 2: MSAATATAAPVPPPVGISNLPNQRYKIVNEEGGTFTVMLCGESGLGKTTFINTLFQTVLKRADGQQHRQEPIRKTVEIDITRALLEEKHFELRVNVIDTPGFGDNVNNNKAWQPLVDFIDDQHDSYMRQEQQPYRTKKFDLRVHAVLYFIRPTGHGLKPIDIETMKRLSTRANLIPVIAKADTLTAQELQQFKSRIRQVIEAQEIRIFTPPLDADSKEDAKSGSNPDSAAVEHARQLIEAMPFAIVGSEKKFDNGQGTQVVARKYPWGLVEIENDSHCDFRKLRALLLRTYLLDLISTTQEMHYETYRRLRLEGHENTGEGNEDFTLPAIAPARKLSHNPRYKEEENALKKYFTDQVKAEEQRFRQWEQNIVNERIRLNGDLEEIQGKVKKLEEQVKSLQVKKSHLK
chain 3: MSLKEEQVSIKQDPEQEERQHDQFNDVQIKQESQDHDGVDSQYTNGTQNDDSERFEAAESDVKVEPGLGMGITSSQSEKGQVLPDQPEIKFIRRQINGYVGFANLPKQWHRRSIKNGFSFNLLCVGPDGIGKTTLMKTLFNNDDIEANLVKDYEEELANDQEEEEGQGEGHENQSQEQRHKVKIKSYESVIEENGVKLNLNVIDTEGFGDFLNNDQKSWDPIIKEIDSRFDQYLDAENKINRHSINDKRIHACLYFIEPTGHYLKPLDLKFMQSVYEKCNLIPVIAKSDILTDEEILSFKKTIMNQLIQSNIELFKPPIYSNDDAENSHLSERLFSSLPYAVIGSNDIVENYSGNQVRGRSYPWGVIEVDNDNHSDFNLLKNLLIKQFMEELKERTSKILYENYRSSKLAKLGIKQDNSVFKEFDPISKQQEEKTLHEAKLAKLEIEMKTVFQQKVSEKEKKLQKSETELFARHKEMKEKLTKQLKALEDKKKQLELSINSASPNVNHSPVPTKKKGFLR
chain 4: MDPLSSVQPASYVGFDTITNQIEHRLLKKGFQFNIMVVGQSGLGKSTLINTLFASHLIDSATGDDISALPVTKTTEMKISTHTLVEDRVRLNINVIDTPGFGDFIDNSKAWEPIVKYIKEQHSQYLRKELTAQRERFITDTRVHAILYFLQPNGKELSRLDVEALKRLTEIANVIPVIGKSDTLTLDERTEFRELIQNEFEKYNFKIYPYDSEELTDEELELNRSVRSIIPFAVVGSENEIEINGETFRGRKTRWSAINVEDINQCDFVYLREFLIRTHLQDLIETTSYIHYEGFRARQLIALKENANSRSSAHMSSNAIQR
notes: septin Cdc11, yeast; septin Cdc12, yeast; septin Cdc3, yeast; septin Cdc10, yeast; also called Cdc11-capped septin octamers; recombinant septin octamers; source: E. coli BL21 (DE3) Rosetta, co-expressed from pFM453 and pFM455, purified (amylose, thrombin cleavage of MBP, Ni-NTA); not shown: MBP, N-terminal, cleaved; His6, N-terminal, kept; copies: 2 + 2 + 2 + 2
B2: MBP-Hof1-BFP-6His (natural protein, S. cerevisiae, UniProt Q05080 1-669, looked up)
chain: MSYSYEACFWDPNDNGVNILLGHISQGIRSCDSMILFFKQRSELEKDYARRLGAITGKLDKDIGTNMDYGKLNETFNVVLSVEKARAQSHSKQSEILFRQIYTDTKAFAANLQARYTTLSGKIERLRMDKFNKKKGCEVLQKKLQDAQIRFRDLQLNENNMIGAKRVEHNKRELLKWESNSQEYKVQLDVLKQEYKASQKFWIHEWAQLSCELQEMENARISFLQSKLQQFATSSMETYILEQTKMDMLTNHLNSFTAADEISTFSKENGTGRLKHKTSKGDMNSSANWAQMSSISTTSKKTESYMDNIRKLSSQLKETENKRKLASIDKYEKPLPSPEVTMATQFRNSTPVIRNETKVVANPTLSLRSSPVQLQSNVDDSVLRQKPDKPRPIVGEEQLKPDEDSKNPDEKGLMVHKRNQSLSSPSESSSSNPTDFSHIKKRQSMESMTTSVSSMANSIDDSQRFAKSWNSSNRKRKSMSHLQVPSSASSRSDDGGRTPNSAHNLNEDDYNTRRDTSTSTILFKPPVAVRGTSRGHTHRQSMIMQDSSNPIEDALYEMERIQSSSKPGTKTGNIMDERGVVRDRGITVTLPIVTSEGFPVIEYAKAMYPLIGNEAPGLANFHKGDYLLITEIVNKDWYKGEVYDNDRIDRNHRIGLIPYNFIQLLHQGL
notes: F-BAR protein Hof1, S. cerevisiae, residues 1-669 (mTagBFP fragment cloned into pBG2163); BFP amplified from pHPOM1-mTagBFP2; also called Hof1 tagged with blue fluorescent protein; pSP1950; source: E. coli BL21 (DE3) Rosetta, purified (Ni-NTA, amylose); not shown: MBP, N-terminal, kept; mTagBFP, C-terminal, kept

Legend:
[1] = target: the molecule itself; test: negative-stain transmission electron microscopy; septin octamers diluted in low salt buffer (20 mM Tris-Cl pH 8, 30 mM NaCl, 2 mM MgCl2, 40 µM GTP), polymerised at least 30 min at 4 °C, 180 nM final; 1% uranyl acetate; octamers to filaments
[2] = target: T1, eGFP-tagged Cdc11-capped septin octamer (S. cerevisiae, UniProt P32458 1-415; P32468 1-407; P32457 1-520; P25342 1-322); test: fluorescence microscopy of purified proteins (colocalisation on septin bundles); 1:1 mix of eGFP-tagged and untagged septin octamers (50 nM) on PI(4,5)P2-containing supported lipid bilayers in 20 mM Tris-Cl pH 8, 30 mM NaCl, 2 mM MgCl2, GTP; Hof1-BFP mixed 1:4 with untagged Hof1 added; spinning disk microscopy; conditions: both partners purified
T1 construct: septin Cdc11, yeast; septin Cdc12, yeast; septin Cdc3, yeast; septin Cdc10, yeast; Always used as a 1:1 mix with the untagged octamer in the fluorescence experiments; also called eGFP-labelled septin octamers; GFP-tagged septin octamers; source: E. coli BL21 (DE3) Rosetta, co-expressed from pFM453 and pFM873, purified (amylose, thrombin cleavage of MBP, Ni-NTA); not shown: MBP, N-terminal, …

Row | Binder | binding result [1] | binding result [2]
1 | B1 | binds | –
2 | B2 | – | binds
